Experiments:
Experiment in all cases: cell-based or functional assay
[1] = molecular target: HIV-1 Env of isolate 92TH021 (subtype AE) (HIV-1)
[2] = molecular target: HIV-1 Env of isolate 92UG031 (subtype A) (HIV-1)
[3] = molecular target: HIV-1 Env of isolate 92UG037 (subtype A) (HIV-1)
[4] = molecular target: HIV-1 Env of isolate 92UG114 (subtype D) (HIV-1)
[5] = molecular target: HIV-1 Env of isolate 92WR009 (subtype A) (HIV-1)
[6] = molecular target: HIV-1 Env of isolate 92WR020 (subtype A) (HIV-1)
[7] = molecular target: HIV-1 Env of isolate 92WR021 (subtype A) (HIV-1)
[8] = molecular target: HIV-1 Env of isolate 92WR024 (subtype A) (HIV-1)
[9] = molecular target: HIV-1 Env of isolate 92WR026 (subtype A) (HIV-1)
[10] = molecular target: HIV-1 Env of isolate 93UG077 (subtype A) (HIV-1)
[11] = molecular target: HIV-1 Env of isolate 93WR029 (subtype A) (HIV-1)
[12] = molecular target: HIV-1 Env of isolate 94 KE 105 (subtype AC) (HIV-1)
[13] = molecular target: HIV-1 Env of isolate 94UG103 (subtype A) (HIV-1)
[14] = molecular target: HIV-1 Env of isolate CMU02 (subtype AE) (HIV-1)
[15] = molecular target: HIV-1 Env of isolate MGRM-AE-001 (subtype AE) (HIV-1)
[16] = molecular target: HIV-1 Env of isolate MGRM-AE-002 (subtype AE) (HIV-1)
[17] = molecular target: HIV-1 Env of isolate MGRM-AE-003 (subtype AE) (HIV-1)
[18] = molecular target: HIV-1 Env of isolate MGRM-AE-004 (subtype AE) (HIV-1)
[19] = molecular target: HIV-1 Env of isolate MGRM-AE-005 (subtype AE) (HIV-1)
[20] = molecular target: HIV-1 Env of isolate MGRM-AE-006 (subtype AE) (HIV-1)
[21] = molecular target: HIV-1 Env of isolate MGRM-AE-007 (subtype AE) (HIV-1)
[22] = molecular target: HIV-1 Env of isolate MGRM-AE-008 (subtype AE) (HIV-1)
[23] = molecular target: HIV-1 Env of isolate MGRM-D-001 (subtype D) (HIV-1)
[24] = molecular target: HIV-1 Env of isolate MGRM-D-002 (subtype D) (HIV-1)
[25] = molecular target: HIV-1 Env of isolate MGRM-D-003 (subtype D) (HIV-1)
[26] = molecular target: HIV-1 Env of isolate MGRM-D-004 (subtype D) (HIV-1)
[27] = molecular target: HIV-1 Env of isolate MGRM-D-005 (subtype D) (HIV-1)
[28] = molecular target: HIV-1 Env of isolate MGRM-D-008 (subtype D) (HIV-1)
[29] = molecular target: HIV-1 Env of isolate MGRM-D-011 (subtype D) (HIV-1)
[30] = molecular target: HIV-1 Env of isolate MGRM-D-012 (subtype D) (HIV-1)
[31] = molecular target: HIV-1 Env of isolate MGRM-D-013 (subtype D) (HIV-1)
[32] = molecular target: HIV-1 Env of isolate MGRM-D-014 (subtype D) (HIV-1)
[33] = molecular target: HIV-1 Env of isolate MGRM-D-016 (subtype D) (HIV-1)
[34] = molecular target: HIV-1 Env of isolate MGRM-D-018 (subtype D) (HIV-1)
[35] = molecular target: HIV-1 Env of isolate MGRM-D-019 (subtype D) (HIV-1)
[36] = molecular target: HIV-1 Env of isolate MGRM-D-020 (subtype D) (HIV-1)
[37] = molecular target: HIV-1 Env of isolate MGRM-D-021 (subtype D) (HIV-1)
[38] = molecular target: HIV-1 Env of isolate MGRM-D-022 (subtype D) (HIV-1)
[39] = molecular target: HIV-1 Env of isolate MGRM-D-024 (subtype D) (HIV-1)
[40] = molecular target: HIV-1 Env of isolate MGRM-D-026 (subtype D) (HIV-1)
[41] = molecular target: HIV-1 Env of isolate MGRM-D-028 (subtype D) (HIV-1)
[42] = molecular target: HIV-1 Env of isolate MGRM-D-029 (subtype D) (HIV-1)
[43] = molecular target: HIV-1 Env of isolate MGRM-F1-004 (subtype F) (HIV-1)
[44] = molecular target: HIV-1 Env of isolate MGRM-F1-006 (subtype F) (HIV-1)
[45] = molecular target: HIV-1 Env of isolate MGRM-F1-008 (subtype F) (HIV-1)
[46] = molecular target: HIV-1 Env of isolate MGRM-F1-010 (subtype F) (HIV-1)
[47] = molecular target: HIV-1 Env of isolate MGRM-F1-012 (subtype F) (HIV-1)
[48] = molecular target: HIV-1 Env of isolate MGRM-F1-013 (subtype F) (HIV-1)
[49] = molecular target: HIV-1 Env of isolate MGRM-F1-014 (subtype F) (HIV-1)
[50] = molecular target: HIV-1 Env of isolate MGRM-F1-015 (subtype F) (HIV-1)
[51] = molecular target: HIV-1 Env of isolate MGRM-F1-016 (subtype F) (HIV-1)
[52] = molecular target: HIV-1 Env of isolate MGRM-F1-017 (subtype F) (HIV-1)
[53] = molecular target: HIV-1 Env of isolate MGRM-F1-018 (subtype F) (HIV-1)
[54] = molecular target: HIV-1 Env of isolate MGRM-F1-020 (subtype F) (HIV-1)
[55] = molecular target: HIV-1 Env of isolate MGRM-F1-021 (subtype F) (HIV-1)
[56] = molecular target: HIV-1 Env of isolate MGRM-F1-022 (subtype F) (HIV-1)
[57] = molecular target: HIV-1 Env of isolate MGRM-F1-023 (subtype F) (HIV-1)
[58] = molecular target: HIV-1 Env of isolate VLGCA1 (subtype A) (HIV-1)

Sequence of PGT-145 (4995_P16) (antibody) (VH): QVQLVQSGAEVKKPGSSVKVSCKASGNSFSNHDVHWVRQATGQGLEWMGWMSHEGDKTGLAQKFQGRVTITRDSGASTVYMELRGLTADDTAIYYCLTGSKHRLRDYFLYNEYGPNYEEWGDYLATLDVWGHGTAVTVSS
Sequence of PGT-145 (4995_P16) (antibody) (VL): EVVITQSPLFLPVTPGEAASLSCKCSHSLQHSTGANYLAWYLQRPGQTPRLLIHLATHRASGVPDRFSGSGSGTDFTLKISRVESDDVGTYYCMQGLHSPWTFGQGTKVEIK

PGT-145 (4995_P16) (antibody)
IC50 (pseudovirus neutralization) [1]: 0.013 µg/mL
IC50 (pseudovirus neutralization) [2]: 3.22 µg/mL
IC50 (pseudovirus neutralization) [3]: 3.15 µg/mL
IC50 (pseudovirus neutralization) [4]: 20.1 µg/mL
IC50 (pseudovirus neutralization) [5]: 0.026 µg/mL
IC50 (pseudovirus neutralization) [6]: 0.997 µg/mL
IC50 (pseudovirus neutralization) [7]: 1.62 µg/mL
IC50 (pseudovirus neutralization) [8]: 0.069 µg/mL
IC50 (pseudovirus neutralization) [9]: 1.45 µg/mL
IC50 (pseudovirus neutralization) [10]: > 50 µg/mL
IC50 (pseudovirus neutralization) [11]: > 50 µg/mL
IC50 (pseudovirus neutralization) [12]: 1.32 µg/mL
IC50 (pseudovirus neutralization) [13]: 0.331 µg/mL
IC50 (pseudovirus neutralization) [14]: 1.43 µg/mL
IC50 (pseudovirus neutralization) [15]: 20.9 µg/mL
IC50 (pseudovirus neutralization) [16]: 1.87 µg/mL
IC50 (pseudovirus neutralization) [17]: 0.552 µg/mL
IC50 (pseudovirus neutralization) [18]: 0.006 µg/mL
IC50 (pseudovirus neutralization) [19]: 0.967 µg/mL
IC50 (pseudovirus neutralization) [20]: > 50 µg/mL
IC50 (pseudovirus neutralization) [21]: 0.181 µg/mL
IC50 (pseudovirus neutralization) [22]: 1.46 µg/mL
IC50 (pseudovirus neutralization) [23]: 0.56 µg/mL
IC50 (pseudovirus neutralization) [24]: > 50 µg/mL
IC50 (pseudovirus neutralization) [25]: 0.006 µg/mL
IC50 (pseudovirus neutralization) [26]: 10.9 µg/mL
IC50 (pseudovirus neutralization) [27]: 10.4 µg/mL
IC50 (pseudovirus neutralization) [28]: 0.025 µg/mL
IC50 (pseudovirus neutralization) [29]: 14.7 µg/mL
IC50 (pseudovirus neutralization) [30]: > 50 µg/mL
IC50 (pseudovirus neutralization) [31]: 3.48 µg/mL
IC50 (pseudovirus neutralization) [32]: 2.51 µg/mL
IC50 (pseudovirus neutralization) [33]: > 50 µg/mL
IC50 (pseudovirus neutralization) [34]: 0.065 µg/mL
IC50 (pseudovirus neutralization) [35]: 0.111 µg/mL
IC50 (pseudovirus neutralization) [36]: 10 µg/mL
IC50 (pseudovirus neutralization) [37]: > 50 µg/mL
IC50 (pseudovirus neutralization) [38]: 34.3 µg/mL
IC50 (pseudovirus neutralization) [39]: 0.224 µg/mL
IC50 (pseudovirus neutralization) [40]: 0.41 µg/mL
IC50 (pseudovirus neutralization) [41]: 0.721 µg/mL
IC50 (pseudovirus neutralization) [42]: 0.03 µg/mL
IC50 (pseudovirus neutralization) [43]: 0.361 µg/mL
IC50 (pseudovirus neutralization) [44]: 13.6 µg/mL
IC50 (pseudovirus neutralization) [45]: 0.228 µg/mL
IC50 (pseudovirus neutralization) [46]: 3.32 µg/mL
IC50 (pseudovirus neutralization) [47]: 0.113 µg/mL
IC50 (pseudovirus neutralization) [48]: 0.402 µg/mL
IC50 (pseudovirus neutralization) [49]: 0.009 µg/mL
IC50 (pseudovirus neutralization) [50]: 1.76 µg/mL
IC50 (pseudovirus neutralization) [51]: 17.5 µg/mL
IC50 (pseudovirus neutralization) [52]: 0.286 µg/mL
IC50 (pseudovirus neutralization) [53]: 1.02 µg/mL
IC50 (pseudovirus neutralization) [54]: 0.816 µg/mL
IC50 (pseudovirus neutralization) [55]: 8.04 µg/mL
IC50 (pseudovirus neutralization) [56]: 0.009 µg/mL
IC50 (pseudovirus neutralization) [57]: 5.88 µg/mL
IC50 (pseudovirus neutralization) [58]: 8.01 µg/mL

Source: patent publication US20160264649A1
